Data on 167 variants can be found in the RNAGym collection of RNA variant scans (doi:10.7554/elife.80360).

B1: Hairpin Ribozyme (parent)
chain: GUCCUCUUUCACGUGCGCGUGAAAGAGAGAAGUGAACCAGAGAAACACACGUUGUGGUAUAUUACCUGGUA

In this series the parent is B1. Briefly: self-cleavage, relative activity (ratio to wild type); higher = more cleavage; co-transcriptional.
Turning to C12A U53C, the self-cleavage amounted to 0.939. Under G13A A24U stands 0.627. Under C12A G51C stands 0.78.

On to C12A G51U, for which the self-cleavage is 0.933. G13A U55C: the self-cleavage turned out to be 0.214.

Regarding C12A U63C, the self-cleavage stood at 0.2. To A11U U63A belongs 0.22. To C12G A39G belongs 0.29. Under C12U G57C stands 0.222. Consider A11G G69U, for which the self-cleavage is 0.215.

For C12G A41G, the self-cleavage came out at 0.573.

As for C12A G40A, the self-cleavage came out at 0.237. For the variant G13A A64U, the self-cleavage worked out at 0.258.

As to G13A A64C, the self-cleavage stood at 0.178. Regarding C12G C38U, the self-cleavage worked out at 0.392. To G13C A22G belongs 0.496. To C12G G57C belongs 0.165; to A11U U53G, 0.69; to A11U U53C, 0.975. Under C12A G54C stands 0.389; under C12A G54U, 0.53. G13A G56C: the self-cleavage came to 0.119. For the variant A11U A71G, the self-cleavage amounted to 0.977. For C12G G51C, the self-cleavage came to 0.753. Under C12G G51U stands 0.663; under C12G G51A, 0.965; under C12U C66U, 0.514. To C12U C66G belongs 0.126; to A11U U55A, 0.154; to G13A A43U, 0.144. With G13A A41G, the self-cleavage was determined as 0.777. Regarding G13A A41U, the self-cleavage came to 0.964. Consider C12G A28G, for which the self-cleavage was found to be 0.889. For A11U G42A, the self-cleavage amounted to 0.136.

With C12U C37G, the self-cleavage was 0.27. Under G13C A71U stands 0.41. On to C12G G21C, for which the self-cleavage came out at 0.47.

Turning to G13A G54U, the self-cleavage was determined as 0.42. To G13A G54C belongs 0.346; to C12A C65A, 0.787. Under C12U A45U stands 0.163; under C12U A45G, 0.162; under A11U A36G, 0.7. To C12G A24G belongs 0.778; to C12G A24C, 0.613; to A11U C38U, 0.47. For the variant C12U G54U, the self-cleavage amounted to 0.58. Under C12A U70G stands 0.673; under C12A U70C, 0.722. To C12G U67C belongs 0.233.

A11U C12G: the self-cleavage stood at 0.74. Under C12U U20G stands 0.76; under C12U A44G, 0.201.

With C12U A44U, the self-cleavage came out at 0.0952. To C12U G19U belongs 0.954; to C12G G32U, 0.179; to C12G U52G, 0.718. As to C12G U62A, the self-cleavage was 0.176. As to C12G U62C, the self-cleavage turned out to be 0.235. To G13C C37G belongs 0.183; to G13C, 0.681.

With G13A, the self-cleavage stood at 0.87. Take G13A U53G: the self-cleavage came out at 0.597. Turning to A11U G17C, the self-cleavage came out at 0.566. As to C12U U60G, the self-cleavage turned out to be 0.504. To C12U U60C belongs 1.02; to C12U G32A, 0.134; to C12A C48G, 0.137. As for C12A C48A, the self-cleavage was 0.162. Under C12G G25C stands 0.489; under G13C A23C, 0.364; under G13C A23G, 0.373. For G13C A23U, the self-cleavage was 0.491. To G13A G19U belongs 0.825; to G13A G19C, 0.804. For the variant G13A G57U, the self-cleavage worked out at 0.205. For the variant C12A G57U, the self-cleavage was 0.172. To C12A G57A belongs 0.255; to C12G C37A, 0.159. Under G13C C48U stands 0.108; under C12U A41G, 0.676.

Consider C12G G17U, for which the self-cleavage is 0.627. Turning to C12G A45C, the self-cleavage came out at 0.0684.

On to C12U G68C, for which the self-cleavage worked out at 0.191. To C12U A61U belongs 0.133; to C12U A61G, 0.255. To C12G G40A belongs 0.266; to C12A C46G, 0.161; to A11U C16U, 1.02. In the case of G13A A30G, the self-cleavage amounted to 0.104.

Regarding C12G G13A, the self-cleavage turned out to be 0.851. On to C12U A23C, for which the self-cleavage was 0.93. Under C12G G69A stands 0.284. In the case of C12G G69U, the self-cleavage stood at 0.259. In the case of A11U G40A, the self-cleavage came to 0.242.

Consider A11U G40C, for which the self-cleavage amounted to 0.178. Under C12A A47C stands 0.329; under C12U A22U, 0.759. Under C12U A22G stands 0.748. Regarding C12A A43C, the self-cleavage stood at 0.257. Under C12A A43G stands 0.116; under C12G C16G, 0.806; under C12G C16A, 0.84.

On to A11U G34U, for which the self-cleavage amounted to 1.36. To G13A G17C belongs 0.507; to G13A G17A, 0.747. To C12G U58A belongs 0.734; to C12U A47U, 0.194. Turning to C12U A47G, the self-cleavage worked out at 0.131.

Turning to G13A G68A, the self-cleavage came to 0.275. C12A G34A: the self-cleavage worked out at 1.21.

With C12A G19U, the self-cleavage is 0.995.

As to C12A G19A, the self-cleavage turned out to be 0.876. To C12U A35C belongs 0.975; to C12U A35G, 0.938; to C12G C46A, 0.191. With C12G C46G, the self-cleavage stood at 0.17. Under C12U G34U stands 1.18; under A11G U62A, 0.154; under A11U A23U, 0.728.

For the variant G13A C37A, the self-cleavage was determined as 0.373. To G13A A59G belongs 0.104; to A11G U53C, 1.02. On to C12A A23C, for which the self-cleavage stood at 0.762.

Consider G13A C38A, for which the self-cleavage came to 0.154.

As for G13A C38G, the self-cleavage came out at 0.0904. To G13A A23C belongs 0.571.

For the variant C12A A28U, the self-cleavage is 0.34. For G13A U67G, the self-cleavage is 0.18.

Take C12U U63G: the self-cleavage is 0.162. Consider G13A C65G, for which the self-cleavage was determined as 0.238. C12G A47C: the self-cleavage turned out to be 0.417. For G13C A44G, the self-cleavage came out at 0.127. As for C12U U52G, the self-cleavage was found to be 0.875. Regarding C12U U52A, the self-cleavage was found to be 0.92.

In the case of C12U U52C, the self-cleavage turned out to be 1.1. With G13A U20C, the self-cleavage came out at 0.902. C12U: the self-cleavage is 0.887. Consider C12G, for which the self-cleavage is 0.827.

On to C12A, for which the self-cleavage turned out to be 0.805. Turning to C12U U70G, the self-cleavage was 0.659. As to C12U U70A, the self-cleavage worked out at 0.746.

Turning to G13A C50U, the self-cleavage turned out to be 0.373. Take C12U U55A: the self-cleavage is 0.191. With C12U A24U, the self-cleavage stood at 0.802. To C12U A31C belongs 0.204. Turning to A11G U67C, the self-cleavage came out at 0.214. In the case of C12A G25A, the self-cleavage was determined as 0.486. Turning to C12A G25U, the self-cleavage turned out to be 0.559. As for C12G U70A, the self-cleavage worked out at 0.728. To A11G U52G belongs 0.681; to C12G G42U, 0.343; to G13A A45G, 0.161. Take C12U G40U: the self-cleavage is 0.191. To A11G U55C belongs 0.105. To A11U U52C belongs 0.891. In the case of A11U U52A, the self-cleavage came out at 0.85. Take C12U A39U: the self-cleavage worked out at 0.45. As for C12U A39C, the self-cleavage is 0.407. On to G13A G25U, for which the self-cleavage stood at 0.512. To C12U G56C belongs 0.137; to C12U G56U, 0.193.

For the variant A11U A24G, the self-cleavage worked out at 0.813.

Take G13C A45G: the self-cleavage was determined as 0.178. Under G13C A45C stands 0.145.

G13C A45U: the self-cleavage was determined as 0.0506. Under A11U G21C stands 0.549.
